# According to PMC10221975 (Pharmaceutics, 2023):
# B1: papain (enzyme, UniProt P00784 134-345, looked up)
# chain: IPEYVDWRQKGAVTPVKNQGSCGSCWAFSAVVTIEGIIKIRTGNLNEYSEQELLDCDRRSYGCNGGYPWSALQLVAQYGIHYRNTYPYEGVQRYCRSREKGPYAAKTDGVRQVQPYNEGALLYSIANQPVSVVLEAAGKDFQLYRGGIFVGPCGNKVDHAVAAVGYGPNYILIKNSWGTGWGENGYIRIKRGTGNSYGVCGLYTSSFYPVKN
# notes: papain; source: bought: Roth (8933.1), used as received
# Biological target: the molecule itself
# Test: dynamic light scattering; after irradiation of the N2O-saturated solution with 0.1 M NaN3 (oxidation by N3 radicals), 70 μM protein, 25 °C; the species seen are held by covalent bonds (dityrosine)
protein,measurement,value
B1,stoichiometry N,2
